Experimental findings from the supplement of paper PMC5998384 are described below.

Series [1] has as its system HeLa Kyoto. Briefly: solubility in G1/S (NP-40 vs SDS abundance) (log2 ratio); higher = more soluble. Conditions: cell cycle stage: G1/S.
Series [2] has as its system HeLa Kyoto. Briefly: solubility change mitosis vs G1/S (difference of NP-40 vs SDS log2 ratios) (log2 ratio difference); higher = more soluble in mitosis.
The test system of series [3] is HeLa Kyoto. Nature of the series: thermal stability score vs G1/S (z-score of summed log2 fold changes over temperatures); higher = more thermally stable than in G1/S.
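Throughout, for solubility change mitosis vs G1/S (difference of NP-40 vs SDS log2 ratios): synchronized HeLa Kyoto cells (double thymidine block for G1/S, nocodazole release for mitosis), protein amounts in NP-40 versus SDS lysates quantified by mass spectrometry, three biological replicates.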
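Throughout, for solubility in G1/S (NP-40 vs SDS abundance): HeLa Kyoto cells arrested at G1/S by double thymidine block, proteins quantified by TMT10plex mass spectrometry in mild NP-40 versus SDS extracts, three biological replicates.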
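Throughout, for thermal stability score vs G1/S (z-score of summed log2 fold changes over temperatures): synchronized HeLa Kyoto cells, proteins quantified by TMT10plex mass spectrometry, three biological replicates, mitosis taken 0.5 h after nocodazole release, G1/S directly after double thymidine block.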

Sequence of ERGIC3 (chain, as listed by the source): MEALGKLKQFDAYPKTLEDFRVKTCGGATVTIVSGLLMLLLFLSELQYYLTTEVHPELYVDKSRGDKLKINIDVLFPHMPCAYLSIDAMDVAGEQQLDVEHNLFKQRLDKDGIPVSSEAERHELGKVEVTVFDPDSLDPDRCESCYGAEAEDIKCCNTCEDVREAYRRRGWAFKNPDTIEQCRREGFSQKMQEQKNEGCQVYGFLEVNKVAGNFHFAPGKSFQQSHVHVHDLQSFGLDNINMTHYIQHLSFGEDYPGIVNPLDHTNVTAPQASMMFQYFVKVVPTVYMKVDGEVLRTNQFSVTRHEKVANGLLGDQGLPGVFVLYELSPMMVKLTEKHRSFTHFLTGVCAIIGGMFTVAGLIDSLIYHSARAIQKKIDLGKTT
Sequence of CSNK1G1 (chain, as listed by the source): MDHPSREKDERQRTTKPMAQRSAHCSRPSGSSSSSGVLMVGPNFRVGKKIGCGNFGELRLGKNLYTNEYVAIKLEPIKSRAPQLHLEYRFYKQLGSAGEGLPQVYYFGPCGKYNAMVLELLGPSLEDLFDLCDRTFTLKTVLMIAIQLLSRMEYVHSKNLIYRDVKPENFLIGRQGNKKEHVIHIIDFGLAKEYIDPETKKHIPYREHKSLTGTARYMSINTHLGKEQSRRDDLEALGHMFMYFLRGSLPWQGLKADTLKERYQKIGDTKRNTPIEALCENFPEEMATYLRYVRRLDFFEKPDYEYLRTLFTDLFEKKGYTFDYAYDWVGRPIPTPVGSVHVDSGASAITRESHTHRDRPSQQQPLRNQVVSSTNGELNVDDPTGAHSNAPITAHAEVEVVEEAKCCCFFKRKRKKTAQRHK
Sequence of CMC2 (chain, as listed by the source): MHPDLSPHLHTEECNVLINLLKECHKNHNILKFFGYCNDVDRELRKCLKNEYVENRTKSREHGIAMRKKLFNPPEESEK
Sequence of INPP5B (chain, as listed by the source): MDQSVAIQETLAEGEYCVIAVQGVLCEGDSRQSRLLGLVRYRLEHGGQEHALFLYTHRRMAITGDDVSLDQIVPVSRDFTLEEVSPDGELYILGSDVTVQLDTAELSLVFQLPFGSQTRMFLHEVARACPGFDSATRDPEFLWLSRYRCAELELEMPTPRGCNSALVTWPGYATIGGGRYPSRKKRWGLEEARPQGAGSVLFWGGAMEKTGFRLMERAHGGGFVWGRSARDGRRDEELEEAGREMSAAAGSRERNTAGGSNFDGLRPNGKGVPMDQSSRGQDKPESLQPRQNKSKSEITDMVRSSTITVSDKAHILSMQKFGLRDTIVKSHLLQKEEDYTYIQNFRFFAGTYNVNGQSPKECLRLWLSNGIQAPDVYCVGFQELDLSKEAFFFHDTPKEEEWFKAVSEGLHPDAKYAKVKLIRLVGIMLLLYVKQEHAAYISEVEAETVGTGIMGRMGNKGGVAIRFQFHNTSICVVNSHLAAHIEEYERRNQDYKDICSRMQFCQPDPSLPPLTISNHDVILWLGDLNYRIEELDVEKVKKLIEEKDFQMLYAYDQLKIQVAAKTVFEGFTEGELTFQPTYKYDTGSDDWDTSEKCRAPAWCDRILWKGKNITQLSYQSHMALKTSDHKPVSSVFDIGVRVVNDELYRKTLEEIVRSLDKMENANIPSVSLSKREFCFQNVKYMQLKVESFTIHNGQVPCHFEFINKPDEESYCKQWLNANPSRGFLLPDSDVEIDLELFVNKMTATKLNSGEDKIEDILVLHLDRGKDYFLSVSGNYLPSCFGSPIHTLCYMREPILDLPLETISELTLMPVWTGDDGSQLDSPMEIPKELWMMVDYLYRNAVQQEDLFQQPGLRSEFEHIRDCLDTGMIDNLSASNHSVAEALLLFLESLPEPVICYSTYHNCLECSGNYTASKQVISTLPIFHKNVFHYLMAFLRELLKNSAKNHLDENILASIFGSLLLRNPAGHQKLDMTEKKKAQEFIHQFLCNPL

Consider ALAS1, for which, in the series with HeLa Kyoto [1], the “solubility in G1/S (log2)” value came to 0.132. For the same substance, the “solubility change mitosis (log2)” value with HeLa Kyoto [2] was found to be 0.00951.

As to ASNSD1, the “solubility in G1/S (log2)” value in the series with HeLa Kyoto [1] was -0.0495. Besides, the “solubility change mitosis (log2)” value with HeLa Kyoto [2] came out at 0.0506.

Take ATAD5: the “solubility in G1/S (log2)” value in the series with HeLa Kyoto [1] was -1.01. Also, the “solubility change mitosis (log2)” value in the series on HeLa Kyoto [2] worked out at 0.557.

CCDC88C: the “solubility in G1/S (log2)” value in the series on HeLa Kyoto [1] was -0.065. Besides, the “solubility change mitosis (log2)” value with HeLa Kyoto [2] is -0.288.

Take CDK5RAP2: in the series on HeLa Kyoto [1], the “solubility in G1/S (log2)” value is -0.157. The “solubility change mitosis (log2)” value in the series on HeLa Kyoto [2] is -0.239.

In the case of CHD6, in the series on HeLa Kyoto [1], the “solubility in G1/S (log2)” value was -0.23. For the same substance, in the series with HeLa Kyoto [2], the “solubility change mitosis (log2)” value is -0.0389.

CMC2: the “solubility in G1/S (log2)” value with HeLa Kyoto [1] worked out at 0.229. Further, the “solubility change mitosis (log2)” value with HeLa Kyoto [2] turned out to be 0.0296.

For CSNK1G1, the “solubility in G1/S (log2)” value in the series with HeLa Kyoto [1] is -0.3. Also, in the series on HeLa Kyoto [2], the “solubility change mitosis (log2)” value was found to be 0.0486.

For the substance DNAJB5, in the series with HeLa Kyoto [1], the “solubility in G1/S (log2)” value turned out to be 0.153. For the same substance, in the series on HeLa Kyoto [2], the “solubility change mitosis (log2)” value worked out at 0.00156.

On to DOPEY2, for which, in the series on HeLa Kyoto [1], the “solubility in G1/S (log2)” value is -0.255. In addition, in the series with HeLa Kyoto [2], the “solubility change mitosis (log2)” value is -0.106.

For the substance ELL2, the “solubility in G1/S (log2)” value with HeLa Kyoto [1] came out at 0.0976. Further, in the series on HeLa Kyoto [2], the “solubility change mitosis (log2)” value was 0.0626.

Turning to ERGIC3, in the series with HeLa Kyoto [2], the “solubility change mitosis (log2)” value is -0.0891. The thermal stability score was -2.7 with HeLa Kyoto [3] (cell cycle stage: early G1 (4.5 h after nocodazole release)) and -7.02 in the series with HeLa Kyoto [3] (cell cycle stage: mitosis).

For the substance GFER, the “solubility in G1/S (log2)” value with HeLa Kyoto [1] turned out to be 0.733. Besides, the “solubility change mitosis (log2)” value in the series on HeLa Kyoto [2] is 0.192.

Consider HEATR5A, for which the “solubility in G1/S (log2)” value in the series with HeLa Kyoto [1] was -0.0946. For the same substance, the “solubility change mitosis (log2)” value in the series with HeLa Kyoto [2] is -0.116.

HELZ2: the “solubility in G1/S (log2)” value with HeLa Kyoto [1] is -0.293. Further, the “solubility change mitosis (log2)” value with HeLa Kyoto [2] was -0.0125.

Turning to INPP5B, the “solubility in G1/S (log2)” value in the series with HeLa Kyoto [1] was -0.143. The “solubility change mitosis (log2)” value with HeLa Kyoto [2] is -0.0113.

As to KDM5A, the “solubility in G1/S (log2)” value in the series with HeLa Kyoto [1] is -0.206. The “solubility change mitosis (log2)” value in the series on HeLa Kyoto [2] came to 0.00727.

In the case of KIAA0586, in the series on HeLa Kyoto [1], the “solubility in G1/S (log2)” value is -0.0749. Also, the “solubility change mitosis (log2)” value with HeLa Kyoto [2] came to 0.00667.

With KMT2B, the “solubility in G1/S (log2)” value in the series on HeLa Kyoto [1] is -0.355. In addition, the “solubility change mitosis (log2)” value with HeLa Kyoto [2] stood at 0.243.

As for “MAAAAEERMAEEGGGGQGDGGSSLASGSTQRQPPPPAPQHPQPGSQALPAPALAPDQLPQNNTLVALPIVAIENILSFMSYDEISQLRLVCKRMDLVCQRMLNQGFLKVERYHNLCQKQVKAQLPRRESERRNHSLARHADILAAVETRLSLLNMTFMKYVDSNLCCFIPGKVIDEIYRVLRYVNSTRAPQRAHEVLQELRDISSMAMEYFDEKIVPILKRKLPGSDVSGRLMGSPPVPGPSAALTTMQLFSKQNPSRQEVTKLQQQVKTNGAGVTVLRREISELRTKVQEQQKQLQDQDQKLLEQTQIIGEQNARLAELERKLREVMESAVGNSSGSGQNEESPRKRKKATEAIDSLRKSKRLRNRK [FBXO28]”, the “solubility in G1/S (log2)” value in the series on HeLa Kyoto [1] is 0.375. For the same substance, the “solubility change mitosis (log2)” value in the series on HeLa Kyoto [2] was determined as 0.262.

As for “MAAANPWDPASAPNGAGLVLGHFIASGMVNQEMLNMSKKTVSCFVNFTRLQQITNIQAEIYQKNLEIELLKLEKDTADVVHPFFLAQKCHTLQSMNNHLEAVLKEKRSLRQRLLKPMCQENLPIEAVYHRYMVHLLELAVTFIERLETHLETIRNIPHLAANLKKMNQALAKMDILVTETEELAENILKWRKQQNEVSSCIPKILAEESYLYKHDIIMPPLPFTSKVHVQTINAK [HAUS2]”, the “solubility in G1/S (log2)” value in the series on HeLa Kyoto [1] worked out at 0.261. Moreover, the “solubility change mitosis (log2)” value in the series on HeLa Kyoto [2] is -0.117.
